According to patent US20210292396A1:

Tests used:
Experiment in all cases: cell-based or functional assay
[1] = molecular target: Env of HIV isolate KER2008.12 (clade A) (HIV)
[2] = molecular target: Env of HIV isolate X2278.C2.B6 (clade B) (HIV)
[3] = molecular target: HIV Env of isolate TZA125.17 (HIV)
[4] = molecular target: HIV Env of isolate T33-7 (HIV)
[5] = molecular target: HIV Env of isolate Bal.01 (HIV)
[6] = molecular target: HIV Env of isolate T250-4 (HIV)
[7] = molecular target: Env of HIV isolate 26191-2.48 (clade C) (HIV)
[8] = molecular target: Env of HIV isolate BX08.16 (clade B) (HIV)
[9] = molecular target: Env of HIV isolate 25925-2.22 (clade C) (HIV)
[10] = molecular target: HIV Env of isolate R2184.c4 (HIV)
[11] = molecular target: HIV Env of isolate R1166.c1 (HIV)
[12] = molecular target: HIV Env of isolate CAAN.A2 (HIV)
[13] = molecular target: HIV Env of isolate DU151.02 (HIV)
[14] = molecular target: Env of HIV isolate MB539.2B7 (clade A) (HIV)
[15] = molecular target: Env of HIV isolate RW020.2 (clade A) (HIV)
[16] = molecular target: Env of HIV isolate 3016.v5.c45 (clade D) (HIV)
[17] = molecular target: Env of HIV isolate 263-8 (clade AG) (HIV)
[18] = molecular target: HIV Env of isolate 25925-2.22 (HIV)
[19] = molecular target: HIV Env of isolate CNE40 (HIV)
[20] = molecular target: Env of HIV isolate CNE40 (clade BC) (HIV)
[21] = molecular target: Env of HIV isolate 928-28 (clade AG) (HIV)
[22] = molecular target: Env of HIV isolate ZM214.15 (clade C) (HIV)
[23] = molecular target: HIV Env of isolate Q769.h5 (HIV)
[24] = molecular target: Env of HIV isolate 246-F3.C10.2 (clade AC) (HIV)
[25] = molecular target: HIV Env of isolate ADA.DG (HIV)
[26] = molecular target: HIV Env of isolate YU2.DG (HIV) (UniProt P35961)
[27] = molecular target: HIV Env of isolate 0013095-2.11 (HIV)
[28] = molecular target: HIV Env of isolate CNE31 (HIV)
[29] = molecular target: Env of HIV isolate 6405.v4.c34 (clade D) (HIV)
[30] = molecular target: HIV Env of isolate 0439.v5.c1 (HIV)
[31] = molecular target: HIV Env of isolate ZA012.29 (HIV)
[32] = molecular target: HIV Env of isolate A07412M1.vrc12 (HIV)
[33] = molecular target: HIV Env of isolate DU123.06 (HIV)
[34] = molecular target: Env of HIV isolate TV1.29 (clade C) (HIV)
[35] = molecular target: Env of HIV isolate CH070.1 (clade BC) (HIV)
[36] = molecular target: HIV Env of isolate 6095.v1.c10 (HIV)
[37] = molecular target: HIV Env of isolate DU156.12 (HIV)
[38] = molecular target: HIV Env of isolate TRO.11 (HIV)
[39] = molecular target: Env of HIV isolate KER2018.11 (clade A) (HIV)
[40] = molecular target: Env of HIV isolate 3988.25 (clade B) (HIV)
[41] = molecular target: HIV Env of isolate ZM109.4 (HIV)
[42] = molecular target: Env of HIV isolate 0815.v3.c3 (clade ACD) (HIV)
[43] = molecular target: HIV Env of isolate 286.36 (HIV)
[44] = molecular target: HIV Env of isolate Q259.17 (HIV)
[45] = molecular target: HIV Env of isolate CNE19 (HIV)
[46] = molecular target: Env of HIV isolate MN.3 (clade B) (HIV)
[47] = molecular target: HIV Env of isolate BB201.B42 (HIV)
[48] = molecular target: Env of HIV isolate X2088.c9 (clade G) (HIV)
[49] = molecular target: Env of HIV isolate T250-4 (clade AG) (HIV)
[50] = molecular target: HIV Env of isolate THRO.18 (HIV)
[51] = molecular target: HIV Env of isolate 288.38 (HIV)
[52] = molecular target: HIV Env of isolate BG505.W6M.C2 (HIV)
Env of SIVmac251.30.SG3 = molecular target: Env of SIVmac251.30.SG3
[53] = molecular target: HIV Env of isolate ZM233.6 (HIV)

Chain of HIV Env of isolate YU2.DG (HIV) (P35961 32-843 limits assumed): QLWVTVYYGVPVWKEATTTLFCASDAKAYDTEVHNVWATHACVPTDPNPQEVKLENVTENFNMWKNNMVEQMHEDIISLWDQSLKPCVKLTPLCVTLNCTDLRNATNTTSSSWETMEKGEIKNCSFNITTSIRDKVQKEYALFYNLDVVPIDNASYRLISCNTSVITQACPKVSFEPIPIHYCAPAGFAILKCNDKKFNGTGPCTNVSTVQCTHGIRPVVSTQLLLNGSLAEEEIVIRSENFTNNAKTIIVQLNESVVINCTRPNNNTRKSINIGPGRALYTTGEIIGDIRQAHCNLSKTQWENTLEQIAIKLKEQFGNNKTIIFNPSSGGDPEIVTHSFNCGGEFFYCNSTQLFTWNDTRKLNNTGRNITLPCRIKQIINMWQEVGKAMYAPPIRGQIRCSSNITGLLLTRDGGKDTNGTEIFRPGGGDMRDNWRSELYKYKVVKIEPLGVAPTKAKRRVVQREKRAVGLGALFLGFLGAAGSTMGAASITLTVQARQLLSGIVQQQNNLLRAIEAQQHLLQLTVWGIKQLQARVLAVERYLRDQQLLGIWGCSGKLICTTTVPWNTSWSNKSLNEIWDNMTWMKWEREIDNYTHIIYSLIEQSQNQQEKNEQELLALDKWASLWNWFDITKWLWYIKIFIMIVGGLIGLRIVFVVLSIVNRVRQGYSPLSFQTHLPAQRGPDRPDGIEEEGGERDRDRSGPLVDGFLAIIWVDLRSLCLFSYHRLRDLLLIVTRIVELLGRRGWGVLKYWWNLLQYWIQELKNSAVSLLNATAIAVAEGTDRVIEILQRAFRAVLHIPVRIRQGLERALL

With PGT121 (antibody) the IC50, pseudovirus neutralization [1] was 0.553 µg/mL, the IC50, pseudovirus neutralization [2] was 0.026 µg/mL and the IC80, pseudovirus neutralization [3] was 9.43 µg/mL. The IC80 [4] was > 50 µg/mL, the IC80 [5] was 0.0277 µg/mL and the IC80 [6] was 0.0123 µg/mL. It also gave an IC50, pseudovirus neutralization [7] of 0.085 µg/mL, an IC50, pseudovirus neutralization [8] of 0.00933 µg/mL and an IC50, pseudovirus neutralization [9] of 0.045 µg/mL. The IC80 [10] was > 50 µg/mL, the IC80 [11] was > 50 µg/mL and the IC80 [12] was 0.0503 µg/mL. For the same substance, the IC80, pseudovirus neutralization [13] was 0.0283 µg/mL, the IC50, pseudovirus neutralization [14] was > 50 µg/mL and the IC50, pseudovirus neutralization [15] was 0.01 µg/mL. The IC50, pseudovirus neutralization [16] was > 50 µg/mL, the IC50, pseudovirus neutralization [17] was 0.484 µg/mL and the IC80, pseudovirus neutralization [18] was 0.0867 µg/mL. It also gave an IC80, pseudovirus neutralization [19] of 1.21 µg/mL, an IC50, pseudovirus neutralization [20] of 0.281 µg/mL and an IC50, pseudovirus neutralization [21] of 5.76 µg/mL. For the same substance, the IC50, pseudovirus neutralization [22] was 0.392 µg/mL, the IC80 [23] was > 50 µg/mL and the IC50, pseudovirus neutralization [24] was > 50 µg/mL. The IC80 [25] was 0.109 µg/mL, the IC80 [26] was 0.126 µg/mL and the IC80, pseudovirus neutralization [27] was > 50 µg/mL. For the same substance, the IC80, pseudovirus neutralization [28] was 2.08 µg/mL, the IC50, pseudovirus neutralization [29] was 0.042 µg/mL and the IC80 [30] was > 50 µg/mL. It also gave an IC80, pseudovirus neutralization [31] of 0.0347 µg/mL, an IC80, pseudovirus neutralization [32] of 0.208 µg/mL and an IC80, pseudovirus neutralization [33] of 0.135 µg/mL. For the same substance, the IC50, pseudovirus neutralization [34] was 0.146 µg/mL, the IC50, pseudovirus neutralization [35] was 0.0137 µg/mL and the IC80 [36] was > 50 µg/mL. The IC80, pseudovirus neutralization [37] was 0.0367 µg/mL, the IC80 [38] was 0.0583 µg/mL and the IC50, pseudovirus neutralization [39] was > 50 µg/mL. For the same substance, the IC50, pseudovirus neutralization [40] was 0.0127 µg/mL, the IC80, pseudovirus neutralization [41] was > 50 µg/mL and the IC50, pseudovirus neutralization [42] was 0.0323 µg/mL. For the same substance, the IC80, pseudovirus neutralization [43] was 0.027 µg/mL, the IC80 [44] was > 50 µg/mL and the IC80, pseudovirus neutralization [45] was 0.041 µg/mL. For the same substance, the IC50, pseudovirus neutralization [46] was > 50 µg/mL, the IC80 [47] was 0.0243 µg/mL and the IC50, pseudovirus neutralization [48] was 0.00633 µg/mL. The IC50, pseudovirus neutralization [49] was 0.00433 µg/mL, the IC80 [50] was > 50 µg/mL and the IC80, pseudovirus neutralization [51] was 0.0443 µg/mL. The IC80 [52] was 0.165 µg/mL, the IC80, pseudovirus neutralization (Env of SIVmac251.30.SG3) was > 50 µg/mL and the IC80, pseudovirus neutralization [53] was 3.6 µg/mL.
